Experimental findings from patent US20240189423A1 (University of California, published 2024) are described below.

Assay [1] deals with T1, CXCR7 (human (endogenous on a human cancer …, UniProt P25106 1-362)).
T1 construct: whole, on cells; also called ACKR3
The assay is described as follows: flow cytometry on MDA-MB-231 cells known to express CXCR4 and CXCR7. A general note: Flow cytometry measures light scatter and fluorescence of single cells or particles in a stream.

Assay [2] concerns the target T2, CXCR4 (human (endogenous on a human cancer …, UniProt P61073 1-352)).
T2 construct: whole, on cells
The description is as above.

Assay [3] concerns the target T3, mouse CXCR7 (mouse, UniProt P56485 1-362).
T3 construct: whole, on cells; also called mouse CXCR7 receptors
Briefly: flow cytometry on MC38 and CT26 mouse cells.

The target of assay [4] is VEGF-647 (UniProt P15692-4 27-191, biotinylated, pre-incubated with streptavidin-647). The assay is described as follows: cell-based or functional assay.
Chain of VEGF-647 (P15692 other isoform, or with tags, fused parts or gaps limits assumed): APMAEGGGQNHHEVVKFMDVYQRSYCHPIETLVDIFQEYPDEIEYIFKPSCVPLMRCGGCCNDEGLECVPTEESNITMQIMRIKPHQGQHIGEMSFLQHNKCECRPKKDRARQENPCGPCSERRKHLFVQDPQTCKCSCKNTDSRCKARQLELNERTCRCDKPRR

T2 sequence (P61073 whole entry): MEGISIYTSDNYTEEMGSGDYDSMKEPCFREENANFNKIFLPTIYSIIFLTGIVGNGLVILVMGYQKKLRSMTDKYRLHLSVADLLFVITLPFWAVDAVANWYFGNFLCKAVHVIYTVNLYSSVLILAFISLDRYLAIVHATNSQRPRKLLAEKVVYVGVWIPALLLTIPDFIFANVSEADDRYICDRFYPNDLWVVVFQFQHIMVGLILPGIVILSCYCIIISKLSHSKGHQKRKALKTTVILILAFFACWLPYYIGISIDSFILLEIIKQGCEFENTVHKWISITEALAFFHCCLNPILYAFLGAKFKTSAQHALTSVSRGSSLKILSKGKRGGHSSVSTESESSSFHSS
T3 sequence (P56485 whole entry): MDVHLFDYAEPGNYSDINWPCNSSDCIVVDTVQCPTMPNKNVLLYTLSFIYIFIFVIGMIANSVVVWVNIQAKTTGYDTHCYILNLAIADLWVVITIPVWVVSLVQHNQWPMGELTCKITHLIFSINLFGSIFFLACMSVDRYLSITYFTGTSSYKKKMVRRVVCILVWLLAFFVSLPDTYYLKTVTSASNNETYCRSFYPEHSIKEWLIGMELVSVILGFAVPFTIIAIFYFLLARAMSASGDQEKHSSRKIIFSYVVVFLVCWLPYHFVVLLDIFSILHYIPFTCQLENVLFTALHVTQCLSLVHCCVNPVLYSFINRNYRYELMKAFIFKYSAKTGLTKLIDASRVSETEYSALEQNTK
T1 sequence (P25106 whole entry): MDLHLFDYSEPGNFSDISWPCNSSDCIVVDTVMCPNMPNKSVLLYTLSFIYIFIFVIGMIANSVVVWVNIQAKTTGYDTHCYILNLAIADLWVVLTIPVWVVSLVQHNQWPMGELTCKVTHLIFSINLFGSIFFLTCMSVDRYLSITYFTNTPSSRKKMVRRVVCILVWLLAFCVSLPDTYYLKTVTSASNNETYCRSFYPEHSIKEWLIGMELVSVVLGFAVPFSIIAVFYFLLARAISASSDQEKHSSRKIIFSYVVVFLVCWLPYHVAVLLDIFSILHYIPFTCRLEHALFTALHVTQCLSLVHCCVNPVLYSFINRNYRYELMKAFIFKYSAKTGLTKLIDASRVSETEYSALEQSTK

B1: CXCL12-Isotype (bispecific antibody, human IgG1, kappa, N297G)
chain: not shown
heavy: not shown
light: DIQMTQSPSSLSASVGDRVTITCRASQSVGSALAWYQQKPGKAPKLLIYSASSLYSGVPSRFSGSRSGTDFTLTISSLQPEDFATYYCQQSSYHHPITFGQGTKVEIKRTVAAPSVFIFPPSDSQLKSGTASVVCLLNNFYPREAKVQWKVDNALQSGNSQESVTEQDSKDSTYSLSSTLTLSKADYEKHKVYACEVTHQGLSSPVTKSF
notes: also called human CXCL12 isotype; isotype control of the CXCL12 bispecific
On to B1, for which the binding result in assay [1], in assay [2] and in assay [3] was “binds” each time.

B2: CXCL12-Bevacizumab (bispecific antibody, human IgG1, N297G)
chain: not shown
heavy: not shown
light: not shown
With B2, the “fold increase in cellular fluorescence (VEGF-647 uptake), flow cytometry, HeLa cells, 24 hr” value in assay [4] was 32 fold.
